Measurements reported in patent US20240409645A1 (DUALYX, published 2024).
Like-named read-outs stand apart in the source and are kept apart here.

T1: human IL-2 receptor (IL-2Rα/IL-2Rβ/γc) (human, UniProt P01589 22-272; P14784 27-551; P31785 23-369)
T1 sequence 1: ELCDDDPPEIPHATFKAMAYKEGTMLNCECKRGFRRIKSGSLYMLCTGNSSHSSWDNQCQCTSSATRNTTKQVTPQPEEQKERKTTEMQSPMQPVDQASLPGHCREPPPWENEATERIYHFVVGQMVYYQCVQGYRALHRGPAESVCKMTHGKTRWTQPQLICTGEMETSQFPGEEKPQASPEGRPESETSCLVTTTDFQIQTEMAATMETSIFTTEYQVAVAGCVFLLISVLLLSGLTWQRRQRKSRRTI
T1 sequence 2: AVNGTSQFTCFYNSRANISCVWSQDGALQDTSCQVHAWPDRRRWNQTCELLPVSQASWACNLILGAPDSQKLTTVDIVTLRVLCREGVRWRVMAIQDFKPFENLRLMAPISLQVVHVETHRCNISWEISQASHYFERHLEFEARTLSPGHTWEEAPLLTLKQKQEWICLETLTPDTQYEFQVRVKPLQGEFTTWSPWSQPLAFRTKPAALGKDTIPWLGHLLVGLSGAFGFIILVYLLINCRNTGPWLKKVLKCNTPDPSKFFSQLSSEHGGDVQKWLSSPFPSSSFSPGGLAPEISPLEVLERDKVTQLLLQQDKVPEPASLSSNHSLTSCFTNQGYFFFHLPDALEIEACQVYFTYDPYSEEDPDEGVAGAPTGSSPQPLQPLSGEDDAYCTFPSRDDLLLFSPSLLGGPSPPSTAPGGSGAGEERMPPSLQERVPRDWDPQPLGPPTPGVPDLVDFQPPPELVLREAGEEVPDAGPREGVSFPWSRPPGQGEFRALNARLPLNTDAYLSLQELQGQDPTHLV
T1 sequence 3: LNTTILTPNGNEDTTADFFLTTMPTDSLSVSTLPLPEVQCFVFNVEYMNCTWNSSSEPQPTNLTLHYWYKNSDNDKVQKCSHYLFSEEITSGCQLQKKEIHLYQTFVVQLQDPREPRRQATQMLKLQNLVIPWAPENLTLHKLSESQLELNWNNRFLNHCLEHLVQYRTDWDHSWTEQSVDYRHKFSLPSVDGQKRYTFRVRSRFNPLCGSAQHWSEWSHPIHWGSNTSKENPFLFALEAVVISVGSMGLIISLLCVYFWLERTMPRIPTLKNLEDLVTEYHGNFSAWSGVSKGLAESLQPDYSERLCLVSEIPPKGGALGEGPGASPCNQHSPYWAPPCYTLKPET


What was measured:
[1] = molecular target: T1, human IL-2 receptor (IL-2Rα/IL-2Rβ/γc); experiment: cell-based or functional assay
[2] = molecular target: T1, human IL-2 receptor (IL-2Rα/IL-2Rβ/γc); experiment: cell-based or functional assay; remark: listed apart in the source

Row | Binder | EC50 (nM) pSTAT5, NK, human PBMCs [1] [nM] | EC50 (nM) pSTAT5, Treg, human PBMCs [1] | Fold Max signal (% pSTAT5+) Treg/NK [1] [fold] | Max signal (% pSTAT5+), NK [1] [% pSTAT5+] | Max signal (% pSTAT5+), Treg [1] [% pSTAT5+] | fold EC50 NK/Treg [1] [fold] | EC50 (nM) pSTAT5, NK, human PBMCs [2] [nM] | EC50 (nM) pSTAT5, Treg, human PBMCs [2] [pM] | Fold Max signal (% pSTAT5+) Treg/NK [2] [fold] | Max signal (% pSTAT5+), NK [2] [% pSTAT5+] | Max signal (% pSTAT5+), Treg [2] [% pSTAT5+] | fold EC50 NK/Treg [2] [fold]
1 | DC00050 (other) chain 1: QVQLVESGGGLVQPGGSLRLSCATSGFTFRNNFMSWVRQAPGKGLEWVSTISYGGESTTYAESVKGRFTISRDNAKNTLYLQMNNLKPEDTAVYYCAKATSYDSIRSGSRGQGTQVTVSSGGGGSGGGGSGGGGSQVQLVESGGGLVQPGGSLRLSCATSGFTFRNNFMSWVRQAPGKGLEWVSTISYGGESTTYAESVKGRFTISRDNAKNTLYLQMNNLKPEDTAVYYCAKATSYDSIRSGSRGQGTQVTVSSDKTHTCPPCPAPEAAGGPSVFLFPPKPKDTLMISRTPEVTCVVVDVSHEDPEVKFNWYVDGVEVHNAKTKPREEQYNSTYRVVSVLTVLHQDWLNGKEYKCKVSNKALGAPIEKTISKAKGQPREPQVYTLPPSRDELTKNQVSLTCLVKGFYPSDIAVEWESNGQPENNYKTTPPVLDSDGSFLLYSKLTVDKSRWQQGNVFSCSVMHEALHNHYTQKSLSLSPGK chain 2: QVQLVESGGGLVQPGGSLRLSCATSGFTFRNNFMSWVRQAPGKGLEWVSTISYGGESTTYAESVKGRFTISRDNAKNTLYLQMNNLKPEDTAVYYCAKATSYDSIRSGSRGQGTQVTVSSGGGGSGGGGSGGGGSEVQLVESGGGLVQTGGSLRLSCAASGGTFSRDAMAWFRQVPGKEREFVALISWSGATTNYADSVKGRFAISRDNGKNTVYLQMNRLKPADTAIYYCAADRRPMGSRSYFEPTEYDDWGQGTQVTVSSGGGGSGGGGSGGGGSQVQLVESGGGLVQAGGSLTLSCAAPGRTFGTDVVGWFRQAPGKEREFVASISRSGDGIYYDDSVKGRFTISRNNAWNTVNLQMNSLKVEDTAVYYCAAGDGWSTYDYWGQGTQVTVSSGGGGSGGGGSGGGGSDKTHTCPPCPAPEAAGGPSVFLFPPKPKDTLMISRTPEVTCVVVDVSHEDPEVKFNWYVDGVEVHNAKTKPREEQYNSTYRVVSVLTVLHQDWLNGKEYKCKVSNKALGAPIEKTISKAKGQPREPQVYTLPPSRDELTKNQVSLTCLVKGFYPSDIAVEWESNGQPENNYKTTPPVLDSDGSFFLYSRLTVDKSRWQQGNVFSCSVMHEALHNHYTQKSLSLSPGK | 0.0326 | 0.00134 nM | 7 | 8 | 56 | 24 | – | – | – | – | – | –
2 | DC00051 (other) chain 1: QVQLVESGGGLVQPGGSLRLSCATSGFTFRNNFMSWVRQAPGKGLEWVSTISYGGESTTYAESVKGRFTISRDNAKNTLYLQMNNLKPEDTAVYYCAKATSYDSIRSGSRGQGTQVTVSSGGGGSGGGGSGGGGSQVQLVESGGGLVQPGGSLRLSCATSGFTFRNNFMSWVRQAPGKGLEWVSTISYGGESTTYAESVKGRFTISRDNAKNTLYLQMNNLKPEDTAVYYCAKATSYDSIRSGSRGQGTQVTVSSDKTHTCPPCPAPEAAGGPSVFLFPPKPKDTLMISRTPEVTCVVVDVSHEDPEVKFNWYVDGVEVHNAKTKPREEQYNSTYRVVSVLTVLHQDWLNGKEYKCKVSNKALGAPIEKTISKAKGQPREPQVYTLPPSRDELTKNQVSLTCLVKGFYPSDIAVEWESNGQPENNYKTTPPVLDSDGSFLLYSKLTVDKSRWQQGNVFSCSVMHEALHNHYTQKSLSLSPGK chain 2: QVQLVESGGGLVQAGGSLTLSCAAPGRTFGTDVVGWFRQAPGKEREFVASISRSGDGIYYDDSVKGRFTISRNNAWNTVNLQMNSLKVEDTAVYYCAAGDGWSTYDYWGQGTQVTVSSGGGGSGGGGSGGGGSEVQLVESGGGLVQTGGSLRLSCAASGGTFSRDAMAWFRQVPGKEREFVALISWSGATTNYADSVKGRFAISRDNGKNTVYLQMNRLKPADTAIYYCAADRRPMGSRSYFEPTEYDDWGQGTQVTVSSGGGGSGGGGSGGGGSQVQLVESGGGLVQPGGSLRLSCATSGFTFRNNFMSWVRQAPGKGLEWVSTISYGGESTTYAESVKGRFTISRDNAKNTLYLQMNNLKPEDTAVYYCAKATSYDSIRSGSRGQGTQVTVSSDKTHTCPPCPAPEAAGGPSVFLFPPKPKDTLMISRTPEVTCVVVDVSHEDPEVKFNWYVDGVEVHNAKTKPREEQYNSTYRVVSVLTVLHQDWLNGKEYKCKVSNKALGAPIEKTISKAKGQPREPQVYTLPPSRDELTKNQVSLTCLVKGFYPSDIAVEWESNGQPENNYKTTPPVLDSDGSFFLYSRLTVDKSRWQQGNVFSCSVMHEALHNHYTQKSLSLSPGK | 0.191 | < 0.1 pM | 3 | 33 | 96 | > 1910 | – | – | – | – | – | –
3 | DC00052 (other) chain 1: QVQLVESGGGLVQPGGSLRLSCATSGFTFRNNFMSWVRQAPGKGLEWVSTISYGGESTTYAESVKGRFTISRDNAKNTLYLQMNNLKPEDTAVYYCAKATSYDSIRSGSRGQGTQVTVSSGGGGSGGGGSGGGGSQVQLVESGGGLVQPGGSLRLSCATSGFTFRNNFMSWVRQAPGKGLEWVSTISYGGESTTYAESVKGRFTISRDNAKNTLYLQMNNLKPEDTAVYYCAKATSYDSIRSGSRGQGTQVTVSSDKTHTCPPCPAPEAAGGPSVFLFPPKPKDTLMISRTPEVTCVVVDVSHEDPEVKFNWYVDGVEVHNAKTKPREEQYNSTYRVVSVLTVLHQDWLNGKEYKCKVSNKALGAPIEKTISKAKGQPREPQVYTLPPSRDELTKNQVSLTCLVKGFYPSDIAVEWESNGQPENNYKTTPPVLDSDGSFLLYSKLTVDKSRWQQGNVFSCSVMHEALHNHYTQKSLSLSPGK chain 2: QVQLVESGGGLVQAGGSLTLSCAAPGRTFGTDVVGWFRQAPGKEREFVASISRSGDGIYYDDSVKGRFTISRNNAWNTVNLQMNSLKVEDTAVYYCAAGDGWSTYDYWGQGTQVTVSSGGGGSGGGGSGGGGSQVQLVESGGGLVQPGGSLRLSCATSGFTFRNNFMSWVRQAPGKGLEWVSTISYGGESTTYAESVKGRFTISRDNAKNTLYLQMNNLKPEDTAVYYCAKATSYDSIRSGSRGQGTQVTVSSGGGGSGGGGSGGGGSEVQLVESGGGLVQTGGSLRLSCAASGGTFSRDAMAWFRQVPGKEREFVALISWSGATTNYADSVKGRFAISRDNGKNTVYLQMNRLKPADTAIYYCAADRRPMGSRSYFEPTEYDDWGQGTQVTVSSGGGGSGGGGSGGGGSDKTHTCPPCPAPEAAGGPSVFLFPPKPKDTLMISRTPEVTCVVVDVSHEDPEVKFNWYVDGVEVHNAKTKPREEQYNSTYRVVSVLTVLHQDWLNGKEYKCKVSNKALGAPIEKTISKAKGQPREPQVYTLPPSRDELTKNQVSLTCLVKGFYPSDIAVEWESNGQPENNYKTTPPVLDSDGSFFLYSRLTVDKSRWQQGNVFSCSVMHEALHNHYTQKSLSLSPGK | 0.0812 | 0.00403 nM | 8 | 9 | 79 | 20 | – | – | – | – | – | –
4 | DC00075 (other) chain 1: QVQLVESGGGLVQAGGSLRLSCAASGIPFDNYAMGWFRQAPGKEREFVAARDLEGIITRYGDSVKGRFTISRGNAKNTVFLQMNSLKPEDTAVYYCAARDGGVVAGSRSSAQYNYWGQGTQVTVSSDKTHTCPPCPAPEAAGGPSVFLFPPKPKDTLMISRTPEVTCVVVDVSHEDPEVKFNWYVDGVEVHNAKTKPREEQYNSTYRVVSVLTVLHQDWLNGKEYKCKVSNKALGAPIEKTISKAKGQPREPQVYTLPPSRDELTKNQVSLTCLVKGFYPSDIAVEWESNGQPENNYKTTPPVLDSDGSFLLYSKLTVDKSRWQQGNVFSCSVMHEALHNHYTQKSLSLSPGK chain 2: EVQLVESGGGLVQTGGSLRLSCAASGGTFSRDAMAWFRQVPGKEREFVALISWSGATTNYADSVKGRFAISRDNGKNTVYLQMNRLKPADTAIYYCAADRRPMGSRSYFEPTEYDDWGQGTQVTVSSGGGGSGGGGSGGGGSQVQLVESGGGLVQPGGSLRLSCATSGFTFRNNFMSWVRQAPGKGLEWVSTISYGGESTTYAESVKGRFTISRDNAKNTLYLQMNNLKPEDTAVYYCAKATSYDSIRSGSRGQGTQVTVSSGGGGSGGGGSGGGGSQVQLVESGGGLVQAGGSLTLSCAAPGRTFGTDVVGWFRQAPGKEREFVASISRSGDGIYYDDSVKGRFTISRNNAWNTVNLQMNSLKVEDTAVYYCAAGDGWSTYDYWGQGTQVTVSSGGGGSGGGGSGGGGSDKTHTCPPCPAPEAAGGPSVFLFPPKPKDTLMISRTPEVTCVVVDVSHEDPEVKFNWYVDGVEVHNAKTKPREEQYNSTYRVVSVLTVLHQDWLNGKEYKCKVSNKALGAPIEKTISKAKGQPREPQVYTLPPSRDELTKNQVSLTCLVKGFYPSDIAVEWESNGQPENNYKTTPPVLDSDGSFFLYSRLTVDKSRWQQGNVFSCSVMHEALHNHYTQKSLSLSPGK | – | – | – | – | – | – | 0.0032 | < 0.1 | 12 | 4.31 | 53.1 | > 32
